In patent CN116023497A (WEST CHINA HOSPITAL SICHUAN UNIV, dated 2023):

Tests used:
DDR2胞外段 = target: T1, DDR2胞外段 (UniProt Q16832 22-399); experiment: ELISA, coated DDR2 ECD, dilution series of Tytug
T1 construct: range 22-399; also called DDR2 ECD
T1 sequence (looked up): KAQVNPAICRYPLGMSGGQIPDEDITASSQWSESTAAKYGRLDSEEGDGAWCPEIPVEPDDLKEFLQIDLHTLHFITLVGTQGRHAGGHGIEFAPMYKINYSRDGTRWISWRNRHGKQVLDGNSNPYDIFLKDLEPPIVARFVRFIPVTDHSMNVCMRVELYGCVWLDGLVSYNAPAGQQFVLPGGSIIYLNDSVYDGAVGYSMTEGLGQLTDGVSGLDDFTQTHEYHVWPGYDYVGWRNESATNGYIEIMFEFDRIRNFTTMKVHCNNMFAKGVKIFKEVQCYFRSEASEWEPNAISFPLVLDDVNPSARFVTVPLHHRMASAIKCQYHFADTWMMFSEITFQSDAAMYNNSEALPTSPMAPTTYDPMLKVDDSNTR

DDR1胞外段(DDR1 ECD), His标签 [1] = target: T2, DDR1胞外段(DDR1 ECD), His标签 (human); experiment: SPR (Biacore), 1:1 model; His-tagged DDR1 ECD on NTA chip, Tytug as analyte
T2 chain: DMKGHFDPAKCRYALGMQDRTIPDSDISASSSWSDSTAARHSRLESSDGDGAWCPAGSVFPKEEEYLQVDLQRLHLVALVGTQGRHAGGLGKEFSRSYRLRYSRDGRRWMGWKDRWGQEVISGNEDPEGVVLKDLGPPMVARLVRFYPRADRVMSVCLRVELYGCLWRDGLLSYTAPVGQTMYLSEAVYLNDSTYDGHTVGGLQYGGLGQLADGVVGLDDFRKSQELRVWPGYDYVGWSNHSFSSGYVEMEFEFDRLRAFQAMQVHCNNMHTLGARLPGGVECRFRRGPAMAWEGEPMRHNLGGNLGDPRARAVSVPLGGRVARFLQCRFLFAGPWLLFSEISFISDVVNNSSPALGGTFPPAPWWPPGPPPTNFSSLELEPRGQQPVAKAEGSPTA

DDR1胞外段(DDR1 ECD), His标签 [2] = target: T2, DDR1胞外段(DDR1 ECD), His标签; experiment: SPR (Biacore), 1:1 model; His-tagged DDR1 ECD on NTA chip, Tytug as analyte; exponent printed without minus sign, kd/ka gives 2.26e-10

B1: Tytug抗体 (antibody, IgG1, V domains shown)
VH: QVQLQQPGAELVRPGSSVRLSCKASGYSFTSYWMNWVKQRPGQGLEWIGMIHPSDSKTRLDQKFKDKATLTVDKSSSTAYMQLSSPTSEDSAVYYCAREGTYYYAMDFWGQGTSVTVSS
VL: DVLMTQTPLSLPVSLGDQASISCRSSQTIVHSNGNTYLEWYLQKPGQSPKLLIYKVSNRFSGVPDRFSGSGSGTDFTLKISRVEAEDLGVYYCFQGSHDPYTFGGGTKLEIK
notes: Mouse hybridoma monoclonal antibody; also called T4-E11-F10; T4-E11-F10(Tytug)
- binding result (DDR2胞外段): no binding
- koff (DDR1胞外段(DDR1 ECD), His标签 [1]): 4.66e-05 s⁻¹
- kon (DDR1胞外段(DDR1 ECD), His标签 [1]): 207000 M⁻¹ s⁻¹
- Kd (DDR1胞外段(DDR1 ECD), His标签 [2]): 0.226 nM
